The supplement of paper PMC9112550, “Optimization of the antimicrobial peptide Bac7 by deep mutational scanning” (BMC Biology, 2022)

Test system: Escherichia coli TOP10
Assay: shrunken log2 fold change of peptide-encoding DNA abundance (4.5 h post-induction vs induction); higher = less antimicrobial activity (less host growth inhibition)
Conditions: time post-induction: 4.5 h; library: site-saturation at positions 5, 18, 19, 20
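Note: peptides expressed intracellularly from a pBAD plasmid library in pooled LB shake-flask culture, induced with 0.3% L-arabinose, DNA abundance read by NGS, three biological replicates, DESeq2 with apeglm shrinkage.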

RRIRDRPPRLPRPRPRPVIQPRP
shrunken log2 fold change: 0.474

RRIRGRPPRLPRPRPRPVPWPRP
shrunken log2 fold change: 0.526

RRIRTRPPRLPRPRPRPMRYPRP
shrunken log2 fold change: -0.0953

RRIRMRPPRLPRPRPRPYRIPRP
shrunken log2 fold change: -0.0176

RRIRARPPRLPRPRPRPRMQPRP
shrunken log2 fold change: 0.637

RRIRLRPPRLPRPRPRPFWHPRP
shrunken log2 fold change: -0.0379

RRIRVRPPRLPRPRPRPSCMPRP
shrunken log2 fold change: -0.136

RRIRERPPRLPRPRPRPEWNPRP
shrunken log2 fold change: -0.197

RRIRVRPPRLPRPRPRPFVHPRP
shrunken log2 fold change: -0.17

RRIRQRPPRLPRPRPRPCKSPRP
shrunken log2 fold change: 0.00854

RRIRYRPPRLPRPRPRPRSMPRP
shrunken log2 fold change: -0.622

RRIRSRPPRLPRPRPRPPCWPRP
shrunken log2 fold change: 0.29

RRIRQRPPRLPRPRPRPRREPRP
shrunken log2 fold change: 0.08

RRIRCRPPRLPRPRPRPQREPRP
shrunken log2 fold change: -0.0986

RRIRHRPPRLPRPRPRPNLHPRP
shrunken log2 fold change: -0.759

RRIRERPPRLPRPRPRPCLIPRP
shrunken log2 fold change: -0.0716

RRIRWRPPRLPRPRPRPRLLPRP
shrunken log2 fold change: 0.178

RRIRGRPPRLPRPRPRPDWVPRP
shrunken log2 fold change: 0.287

RRIRWRPPRLPRPRPRPMPQPRP
shrunken log2 fold change: 0.178

RRIRPRPPRLPRPRPRPQINPRP
shrunken log2 fold change: -0.122

RRIRQRPPRLPRPRPRPWNMPRP
shrunken log2 fold change: -0.086

RRIRPRPPRLPRPRPRPWDWPRP
shrunken log2 fold change: 0.00784

RRIRQRPPRLPRPRPRPFMLPRP
shrunken log2 fold change: -0.278

RRIRIRPPRLPRPRPRPRLHPRP
shrunken log2 fold change: -0.341

RRIRDRPPRLPRPRPRPNMMPRP
shrunken log2 fold change: 0.0387

RRIRNRPPRLPRPRPRPQISPRP
shrunken log2 fold change: 0.00683

RRIRWRPPRLPRPRPRPEATPRP
shrunken log2 fold change: 1.44

RRIRRRPPRLPRPRPRPFIVPRP
shrunken log2 fold change: -0.0553

RRIRVRPPRLPRPRPRPWNNPRP
shrunken log2 fold change: -0.204

RRIRDRPPRLPRPRPRPQMFPRP
shrunken log2 fold change: -0.0311

RRIRERPPRLPRPRPRPWILPRP
shrunken log2 fold change: 0.0494

RRIRQRPPRLPRPRPRPEAHPRP
shrunken log2 fold change: 0.0944

RRIRHRPPRLPRPRPRPQPFPRP
shrunken log2 fold change: -0.213

RRIRMRPPRLPRPRPRPNEYPRP
shrunken log2 fold change: -0.0432

RRIRGRPPRLPRPRPRPQCEPRP
shrunken log2 fold change: 1.31

RRIRYRPPRLPRPRPRPHAVPRP
shrunken log2 fold change: -0.4

RRIRHRPPRLPRPRPRPVLKPRP
shrunken log2 fold change: -0.295

RRIRDRPPRLPRPRPRPLNTPRP
shrunken log2 fold change: -0.0995

RRIRCRPPRLPRPRPRPDFRPRP
shrunken log2 fold change: 0.00204

RRIRIRPPRLPRPRPRPCRHPRP
shrunken log2 fold change: -0.159

RRIRVRPPRLPRPRPRPKYRPRP
shrunken log2 fold change: -0.0331

RRIRRRPPRLPRPRPRPNEDPRP
shrunken log2 fold change: 0.352

RRIRWRPPRLPRPRPRPEASPRP
shrunken log2 fold change: 0.551

RRIRCRPPRLPRPRPRPNESPRP
shrunken log2 fold change: -0.00497

RRIRFRPPRLPRPRPRPNDWPRP
shrunken log2 fold change: -0.271

RRIRTRPPRLPRPRPRPRVFPRP
shrunken log2 fold change: 0.212

RRIRCRPPRLPRPRPRPRQWPRP
shrunken log2 fold change: -0.108

RRIRPRPPRLPRPRPRPYTKPRP
shrunken log2 fold change: -0.0218

RRIRRRPPRLPRPRPRPPMPPRP
shrunken log2 fold change: 0.568

RRIRSRPPRLPRPRPRPCARPRP
shrunken log2 fold change: 0.00657

RRIRCRPPRLPRPRPRPWFQPRP
shrunken log2 fold change: -0.2

RRIRFRPPRLPRPRPRPMCFPRP
shrunken log2 fold change: -0.256

RRIRYRPPRLPRPRPRPVFFPRP
shrunken log2 fold change: -0.367

RRIRARPPRLPRPRPRPYFDPRP
shrunken log2 fold change: -0.123

RRIRLRPPRLPRPRPRPHVYPRP
shrunken log2 fold change: -0.211

RRIRGRPPRLPRPRPRPFNTPRP
shrunken log2 fold change: -0.309

RRIRTRPPRLPRPRPRPKGFPRP
shrunken log2 fold change: 0.0975

RRIRTRPPRLPRPRPRPWYEPRP
shrunken log2 fold change: -0.145

RRIRMRPPRLPRPRPRPWVFPRP
shrunken log2 fold change: 0.152

RRIRDRPPRLPRPRPRPNHDPRP
shrunken log2 fold change: -0.312

RRIRKRPPRLPRPRPRPEEIPRP
shrunken log2 fold change: 0.00253

RRIRWRPPRLPRPRPRPMANPRP
shrunken log2 fold change: 0.21

RRIRPRPPRLPRPRPRPMICPRP
shrunken log2 fold change: -0.172

RRIRRRPPRLPRPRPRPQWWPRP
shrunken log2 fold change: 0.297

RRIRRRPPRLPRPRPRPQLCPRP
shrunken log2 fold change: 0.559

RRIRIRPPRLPRPRPRPGCVPRP
shrunken log2 fold change: -0.00757

RRIRNRPPRLPRPRPRPCWSPRP
shrunken log2 fold change: 0.0596

RRIRQRPPRLPRPRPRPDGVPRP
shrunken log2 fold change: -0.119

RRIRNRPPRLPRPRPRPLQVPRP
shrunken log2 fold change: -0.136

RRIRVRPPRLPRPRPRPDNDPRP
shrunken log2 fold change: -0.232

RRIRDRPPRLPRPRPRPLQRPRP
shrunken log2 fold change: -0.00347

RRIRFRPPRLPRPRPRPGLTPRP
shrunken log2 fold change: -0.143

RRIRMRPPRLPRPRPRPRMWPRP
shrunken log2 fold change: 1.04

RRIRYRPPRLPRPRPRPPALPRP
shrunken log2 fold change: -0.1

RRIRWRPPRLPRPRPRPCHEPRP
shrunken log2 fold change: -0.00847

RRIRNRPPRLPRPRPRPRFFPRP
shrunken log2 fold change: -0.0927

RRIRGRPPRLPRPRPRPLHLPRP
shrunken log2 fold change: 0.0533

RRIRLRPPRLPRPRPRPDDCPRP
shrunken log2 fold change: 0.014

RRIRSRPPRLPRPRPRPRLCPRP
shrunken log2 fold change: 0.28

RRIRARPPRLPRPRPRPWLAPRP
shrunken log2 fold change: 0.162

RRIRARPPRLPRPRPRPFTGPRP
shrunken log2 fold change: -0.00992

RRIRNRPPRLPRPRPRPLYSPRP
shrunken log2 fold change: -0.761

RRIRPRPPRLPRPRPRPVVQPRP
shrunken log2 fold change: 0.28

RRIRSRPPRLPRPRPRPQRIPRP
shrunken log2 fold change: -0.322

RRIRSRPPRLPRPRPRPCRLPRP
shrunken log2 fold change: -0.271

RRIRSRPPRLPRPRPRPGSMPRP
shrunken log2 fold change: -0.201

RRIRSRPPRLPRPRPRPWQCPRP
shrunken log2 fold change: -0.19

RRIRLRPPRLPRPRPRPNQTPRP
shrunken log2 fold change: -0.0464

RRIRPRPPRLPRPRPRPTDMPRP
shrunken log2 fold change: 0.157

RRIRQRPPRLPRPRPRPYQKPRP
shrunken log2 fold change: -0.0335

RRIRRRPPRLPRPRPRPMGLPRP
shrunken log2 fold change: -0.0617
